From patent US20160053025A1 (SAMSUNG ELECTRONICS, published 2016)

What was measured:
Assay in all cases: ELISA, antibody coated, FLAG-tagged mutant Ang2 RBD detected with anti-FLAG-HRP
[1] = target: T1, Ang2 RBD N421A, FLAG-tagged (human, UniProt O15123 281-496, limits assumed)
T1 chain: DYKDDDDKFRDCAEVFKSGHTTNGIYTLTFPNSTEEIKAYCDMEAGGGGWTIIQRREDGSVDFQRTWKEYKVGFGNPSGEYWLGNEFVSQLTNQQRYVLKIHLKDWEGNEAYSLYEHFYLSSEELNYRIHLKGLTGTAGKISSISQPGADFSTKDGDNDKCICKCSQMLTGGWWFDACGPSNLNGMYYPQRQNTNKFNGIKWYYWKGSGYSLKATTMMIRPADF
Experimental: (§1) To verify the epitope (or specific binding site) of the anti-Ang2 antibody prepared in Reference Example 2.3, an ELISA was performed using a recombinant protein where a receptor binding domain (RBD) of Ang2 protein in the form of being tagged with Flag was mutated by artificial means.
(§2) Each well of a 96-well MaxiSorp™ flat-bottom plate (Nunc) was coated with 50 ul (microliter) of 1000 nM antibody. Then, the plate was washed five times with 0.05% (v/v) Tween-20-containing PBS (PBST) and blocked with 1% (v/v) BSA-containing PBS at a room temperature for 2 hours. 250 ng of each mutant Ang2 protein obtained by substituting S417, Q418, P419, N421, 1434, D448, A449, P452, Y460, N467, K468, or F469 residue of Ang2 protein tagged with a FLAG sequence ([…], Sigma) at its N-terminal with alanine was added to each well of the plate, which was then allowed to react at a room temperature for 2 hours.
(§3) Finally, 50 ul of TMB substrates (Cell signaling) was added to each well of the plate to induce color development at a room temperature for 3 min. and the reaction was ceased by the addition of 50 ul of Stop solution (Cell signaling) and then, OD450 values were measured on a plate reader (Molecular Devices). By comparing binding affinities with mutated Ang2 to those of unmutated Ang2, each epitope of Ang2 antibodies was identified. The obtained measurement results of the binding affinities (%) with mutant Ang2 against the binding affinity with the native Ang2 are shown in the following Table 13.

[2] = target: T2, Ang2 RBD K468A, FLAG-tagged (human, UniProt O15123 281-496, limits assumed)
T2 chain: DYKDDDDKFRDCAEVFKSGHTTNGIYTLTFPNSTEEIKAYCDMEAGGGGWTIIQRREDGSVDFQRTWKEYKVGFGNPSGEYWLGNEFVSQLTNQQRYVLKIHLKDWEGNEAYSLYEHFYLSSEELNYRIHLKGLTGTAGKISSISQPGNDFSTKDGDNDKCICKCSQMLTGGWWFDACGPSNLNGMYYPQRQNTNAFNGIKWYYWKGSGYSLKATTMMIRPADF
Experimental: as §1, §2, §3

[3] = target: T3, Ang2 RBD F469A, FLAG-tagged (human, UniProt O15123 281-496, limits assumed)
T3 chain: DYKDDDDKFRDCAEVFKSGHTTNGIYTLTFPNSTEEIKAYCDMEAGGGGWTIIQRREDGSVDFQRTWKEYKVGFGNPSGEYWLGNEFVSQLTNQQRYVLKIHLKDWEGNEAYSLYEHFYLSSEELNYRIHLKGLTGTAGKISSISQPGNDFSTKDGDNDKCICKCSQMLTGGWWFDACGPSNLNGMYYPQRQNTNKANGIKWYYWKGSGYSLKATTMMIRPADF
Experimental: as §1, §2, §3

[4] = target: T4, Ang2 RBD P419A, FLAG-tagged (human, UniProt O15123 281-496, limits assumed)
T4 chain: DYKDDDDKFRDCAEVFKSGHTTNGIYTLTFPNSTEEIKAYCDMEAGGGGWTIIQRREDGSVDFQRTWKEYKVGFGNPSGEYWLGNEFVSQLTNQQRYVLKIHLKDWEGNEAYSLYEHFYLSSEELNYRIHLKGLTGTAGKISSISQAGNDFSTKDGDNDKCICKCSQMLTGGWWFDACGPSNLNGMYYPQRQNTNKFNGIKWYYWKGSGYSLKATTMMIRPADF
Experimental: as §1, §2, §3

[5] = target: T5, Ang2 RBD Q418A, FLAG-tagged (human, UniProt O15123 281-496, limits assumed)
T5 chain: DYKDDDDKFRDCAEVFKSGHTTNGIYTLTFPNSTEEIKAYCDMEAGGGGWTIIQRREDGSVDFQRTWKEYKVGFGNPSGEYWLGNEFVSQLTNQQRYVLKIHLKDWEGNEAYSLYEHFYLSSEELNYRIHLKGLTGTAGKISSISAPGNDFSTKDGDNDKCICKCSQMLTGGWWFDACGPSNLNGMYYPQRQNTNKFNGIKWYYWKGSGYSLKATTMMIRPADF
Experimental: as §1, §2, §3

[6] = target: T6, Ang2 RBD D448A, FLAG-tagged (human, UniProt O15123 281-496, limits assumed)
T6 chain: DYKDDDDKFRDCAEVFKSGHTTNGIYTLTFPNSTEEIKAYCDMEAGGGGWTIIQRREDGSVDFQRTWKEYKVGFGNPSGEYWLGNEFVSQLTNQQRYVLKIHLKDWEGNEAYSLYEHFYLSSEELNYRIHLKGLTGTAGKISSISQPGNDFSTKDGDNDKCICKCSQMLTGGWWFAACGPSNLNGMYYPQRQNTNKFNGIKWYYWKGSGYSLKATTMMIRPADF
Experimental: as §1, §2, §3

[7] = target: T7, Ang2 RBD I434A, FLAG-tagged (human, UniProt O15123 281-496, limits assumed)
T7 construct: Printed as '1434', read as I434
T7 chain: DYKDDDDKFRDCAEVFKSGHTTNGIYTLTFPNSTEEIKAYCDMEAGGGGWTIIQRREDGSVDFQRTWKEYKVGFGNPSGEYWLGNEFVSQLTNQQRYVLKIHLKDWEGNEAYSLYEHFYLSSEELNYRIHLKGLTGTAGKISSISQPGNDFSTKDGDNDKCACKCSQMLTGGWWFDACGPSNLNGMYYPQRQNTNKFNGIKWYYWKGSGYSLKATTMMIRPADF
Experimental: as §1, §2, §3

B1: SAIT-ANG2-AB-m10D6 (antibody, V domains shown)
VH: DVQLQESGPDLVKPSQSLSLTCTVTGYSITSDYAWNWIRQFPGNKLEWMGYINYSGNTDYNPSLKSRSSITRDTSKNQFFLQLNSVTTGDTATYYCARGNFEGAMDYWGQGTSVTVSS
VL: SIVMTQTPKFLLVSAGDRVTITCKASQSVSNDVAWYQQKPGQSPKLLIYYASNRYPGVPDRFTGSGYGTDFTFTISTVQAEDLAVYFCQQDYSSPWTFGGGTKLEIK
notes: Mouse monoclonal antibody purified from a hybridoma (KCLRF-BP-00295); it is not applied here; also called mouse antibody 10D6; 10D6 antibody
binding affinity (%) with mutant Ang2 against the binding affinity with the native Ang2 [1]: 109% | binding affinity (%) with mutant Ang2 against the binding affinity with the native Ang2 [2]: 110% | binding affinity (%) with mutant Ang2 against the binding affinity with the native Ang2 [3]: 109% | binding affinity (%) with mutant Ang2 against the binding affinity with the native Ang2 [4]: 41.1% | binding affinity (%) with mutant Ang2 against the binding affinity with the native Ang2 [5]: 38.9% | binding affinity (%) with mutant Ang2 against the binding affinity with the native Ang2 [6]: 105% | binding affinity (%) with mutant Ang2 against the binding affinity with the native Ang2 [7]: 109%
